The values below come from the supplement of paper PMC11246515.

± gives the standard deviation of the averaged measurements.

The data set in a line: total protein half-life in vivo (active degradation + dilution); higher = more stable protein.
The mark [1] stands for this setting: E. coli NCM3722 delta-clpP delta-lon delta-hslV, growth: N-lim chemostat, doubling time 6 h.
The mark [2] stands for this setting: E. coli NCM3722 delta-clpP, growth: N-lim chemostat, doubling time 6 h.
The mark [3] stands for this setting: E. coli NCM3722 delta-hslV, growth: N-lim chemostat, doubling time 6 h.
Setting [4] is: E. coli NCM3722 delta-lon, growth: N-lim chemostat, doubling time 6 h.
[5] abbreviates: E. coli NCM3722 delta-smpB, growth: N-lim chemostat, doubling time 6 h.
[6] abbreviates: wild type E. coli NCM3722, growth: C-lim chemostat, doubling time 3 h.
[7] abbreviates: wild type E. coli NCM3722, growth: C-lim chemostat, doubling time 6 h.
Setting [8] is: wild type E. coli NCM3722, growth: C-lim chemostat, doubling time 12 h.
[9] abbreviates: wild type E. coli NCM3722, growth: N-lim chemostat, doubling time 6 h.
The mark [10] stands for this setting: wild type E. coli NCM3722, growth: N-lim chemostat, doubling time 12 h.
Where [11] appears, read: wild type E. coli NCM3722, growth: P-lim chemostat, doubling time 6 h.
The mark [12] stands for this setting: wild type E. coli NCM3722, growth: P-lim chemostat, doubling time 12 h.

With “MLLEQGWLVGARRVPSPHYDCRPDDETPTLLVVHNISLPPGEFGGPWIDALFTGTIDPQAHPFFAEIAHLRVSAHCLIRRDGEIVQYVPFDKRAWHAGVSQYQGRERCNDFSIGIELEGTDTLAYTDAQYQQLAAVTRALIDCYPDIAKNMTGHCDIAPDRKTDPGPAFDWARFRVLVSKETT”, the “total protein half-life in vivo” value came to 5.19 ± 0.54 h under setting [1]; 3.72 h under setting [2]; 3.07 ± 0.013 h under setting [3]; 3.75 ± 0.89 h under setting [4]; 2.96 ± 0.27 h under setting [5]; 3.18 ± 0.31 h under setting [6]. The “total protein half-life in vivo” value by setting is: under setting [7], 4.11 ± 0.3 h; under setting [8], 7.89 ± 1.5 h; under setting [9], 2.88 ± 0.77 h; under setting [10], 5.25 ± 0.51 h; under setting [11], 4.46 ± 0.12 h; under setting [12], 9.44 ± 0.099 h.
Turning to “MHFLRRPISLRQRLILTIGAILLVFELISVFWLWHESTEQIQLFEQALRDNRNNDRHIMREIREAVASLIVPGVFMVSLTLFICYQAVRRITRPLAELQKELEARTADNLTPIAIHSATLEIEAVVSALNDLVSRLTSTLDNERLFTADVAHELRTPLAGVRLHLELLAKTHHIDVAPLVARLDQMMESVSQLLQLARAGQSFSSGNYQHVKLLEDVILPSYDELSTMLDQRQQTLLLPESAADITVQGDATLLRMLLRNLVENAHRYSPQGSNIMIKLQEDDGAVMAVEDEGPGIDESKCGELSKAFVRMDSRYGGIGLGLSIVSRITQLHHGQFFLQNRQETSGTRAWVRLKKDQYVANQI”, the “total protein half-life in vivo” value reads like this: under setting [1], 5.995 ± 0.044 h; under setting [3], 4.89 ± 1.3 h; under setting [4], 6.2 ± 1.3 h; under setting [5], 5.5 ± 0.35 h; under setting [6], 3.17 ± 0.22 h; under setting [7], 5.99 ± 0.74 h. Moreover, the “total protein half-life in vivo” value is, setting by setting: under setting [8], 11.5 ± 0.59 h; under setting [9], 5.9 ± 0.18 h; under setting [10], 12.7 ± 0.62 h; under setting [11], 6.25 ± 0.75 h; under setting [12], 11.1 ± 1.5 h.
Consider “MKKVWLNRYPADVPTEINPDRYQSLVDMFEQSVARYADQPAFVNMGEVMTFRKLEERSRAFAAYLQQGLGLKKGDRVALMMPNLLQYPVALFGILRAGMIVVNVNPLYTPRELEHQLNDSGASAIVIVSNFAHTLEKVVDKTAVQHVILTRMGDQLSTAKGTVVNFVVKYIKRLVPKYHLPDAISFRSALHNGYRMQYVKPELVPEDLAFLQYTGGTTGVAKGAMLTHRNMLANLEQVNATYGPLLHPGKELVVTALPLYHIFALTINCLLFIELGGQNLLITNPRDIPGLVKELAKYPFTAITGVNTLFNALLNNKEFQQLDFSSLHLSAGGGMPVQQVVAERWVKLTGQYLLEGYGLTECAPLVSVNPYDIDYHSGSIGLPVPSTEAKLVDDDDNEVPPGQPGELCVKGPQVMLGYWQRPDATDEIIKNGWLHTGDIAVMDEEGFLRIVDRKKDMILVSGFNVYPNEIEDVVMQHPGVQEVAAVGVPSGSSGEAVKIFVVKKDPSLTEESLVTFCRRQLTGYKVPKLVEFRDELPKSNVGKILRRELRDEARGKVDNKA”, for which the “total protein half-life in vivo” value runs as follows: under setting [2], 5.82 ± 0.16 h; under setting [3], 5.05 ± 0.23 h; under setting [4], 5.34 ± 0.82 h; under setting [5], 4.279 ± 0.022 h; under setting [6], 1.68 ± 0.16 h; under setting [7], 3.98 ± 0.57 h. The “total protein half-life in vivo” value under setting [8] was 6.59 ± 0.46 h; the “total protein half-life in vivo” value under setting [9] turned out to be 4.879 ± 0.022 h; the “total protein half-life in vivo” value under setting [10] was found to be 10.9 ± 1.6 h; the “total protein half-life in vivo” value under setting [11] is 4.93 ± 0.11 h; the “total protein half-life in vivo” value under setting [12] was found to be 10.8 ± 1.1 h.
Regarding “MKTVTVKDLVIGTGAPKIIVSLMAKDIASVKSEALAYREADFDILEWRVDHYADLSNVESVMAAAKILRETMPEKPLLFTFRSAKEGGEQAISTEAYIALNRAAIDSGLVDMIDLELFTGDDQVKETVAYAHAHDVKVVMSNHDFHKTPEAEEIIARLRKMQSFDADIPKIALMPQSTSDVLTLLAATLEMQEQYADRPIITMSMAKTGVISRLAGEVFGSAATFGAVKKASAPGQISVNDLRTVLTILHQA”, the “total protein half-life in vivo” value under setting [1] was 3.99 ± 0.25 h; the “total protein half-life in vivo” value under setting [2] was determined as 4.15 ± 0.66 h; the “total protein half-life in vivo” value under setting [3] is 3.51 ± 0.0088 h; the “total protein half-life in vivo” value under setting [4] was 4.3 ± 0.52 h; the “total protein half-life in vivo” value under setting [5] is 3.62 ± 0.46 h; the “total protein half-life in vivo” value under setting [6] was above 4 h. Besides, the “total protein half-life in vivo” value by setting is: under setting [7], 5.56 ± 1 h; under setting [8], 9.4 ± 0.9 h; under setting [9], 3.68 ± 0.14 h; under setting [10], 5.5 ± 0.19 h; under setting [11], 5.38 ± 0.21 h; under setting [12], 11 ± 0.46 h.
Consider “MMLSATQPLSEKLPAHGCRHVAIIMDGNGRWAKKQGKIRAFGHKAGAKSVRRAVSFAANNGIEALTLYAFSSENWNRPAQEVSALMELFVWALDSEVKSLHRHNVRLRIIGDTSRFNSRLQERIRKSEALTAGNTGLTLNIAANYGGRWDIVQGVRQLAEKVQQGNLQPDQIDEEMLNQHVCMHELAPVDLVIRTGGEHRISNFLLWQIAYAELYFTDVLWPDFDEQDFEGALNAFANRERRFGGTEPGDETA”, for which the “total protein half-life in vivo” value runs as follows: under setting [1], 4.31 ± 0.33 h; under setting [2], 4.73 ± 0.53 h; under setting [3], 2.9 ± 0.15 h; under setting [4], 3.15 ± 0.76 h; under setting [5], 3.01 ± 0.68 h; under setting [6], 2.21 ± 0.11 h. Also, the “total protein half-life in vivo” value came out at 3.73 ± 0.41 h under setting [7]; 5.97 h under setting [8]; 3.18 ± 0.091 h under setting [9]; 6.55 h under setting [10]; 3.94 ± 0.13 h under setting [11]; 5.49 ± 2.1 h under setting [12].
Consider “MKNASTVSEDTASNQEPTLHRGLHNRHIQLIALGGAIGTGLFLGIGPAIQMAGPAVLLGYGVAGIIAFLIMRQLGEMVVEEPVSGSFAHFAYKYWGPFAGFLSGWNYWVMFVLVGMAELTAAGIYMQYWFPDVPTWIWAAAFFIIINAVNLVNVRLYGETEFWFALIKVLAIIGMIGFGLWLLFSGHGGEKASIDNLWRYGGFFATGWNGLILSLAVIMFSFGGLELIGITAAEARDPEKSIPKAVNQVVYRILLFYIGSLVVLLALYPWVEVKSNSSPFVMIFHNLDSNVVASALNFVILVASLSVYNSGVYSNSRMLFGLSVQGNAPKFLTRVSRRGVPINSLMLSGAITSLVVLINYLLPQKAFGLLMALVVATLLLNWIMICLAHLRFRAAMRRQGRETQFKALLYPFGNYLCIAFLGMILLLMCTMDDMRLSAILLPVWIVFLFMAFKTLRRK”, for which the “total protein half-life in vivo” value was 5.66 h under setting [1], 5.51 h under setting [2], 5.23 ± 0.36 h under setting [5] and above 16 h under setting [12].
As for “MLVVELIIVLLAIFLGARLGGIGIGFAGGLGVLVLAAIGVKPGNIPFDVISIIMAVIAAISAMQVAGGLDYLVHQTEKLLRRNPKYITILAPIVTYFLTIFAGTGNISLATLPVIAEVAKEQGVKPCRPLSTAVVSAQIAITASPISAAVVYMSSVMEGHGISYLHLLSVVIPSTLLAVLVMSFLVTMLFNSKLSDDPIYRKRLEEGLVELRGEKQIEIKSGAKTSVWLFLLGVVGVVIYAIINSPSMGLVEKPLMNTTNAILIIMLSVATLTTVICKVDTDNILNSSTFKAGMSACICILGVAWLGDTFVSNNIDWIKDTAGEVIQGHPWLLAVIFFFASALLYSQAATAKALMPMALALNVSPLTAVASFAAVSGLFILPTYPTLVAAVQMDDTGTTRIGKFVFNHPFFIPGTLGVALAVCFGFVLGSFML [P0ABN5]”, the “total protein half-life in vivo” value by setting is: under setting [1], 5.71 h; under setting [2], 6.38 ± 0.28 h; under setting [5], 5.933 ± 0.026 h; under setting [6], above 4 h; under setting [7], 6.25 h; under setting [11], 6.8 ± 0.54 h. Further, the “total protein half-life in vivo” value under setting [12] came out at 12.4 ± 0.89 h.
